# Target: cyno PD1
# Test: flow cytometry, PD-1-transfected CHO-S cells; mAb 10 ug/ml, then R-PE PD-L1-Fc as blocked ligand
# Sequence of pembrolizumab analogue (antibody) (VH): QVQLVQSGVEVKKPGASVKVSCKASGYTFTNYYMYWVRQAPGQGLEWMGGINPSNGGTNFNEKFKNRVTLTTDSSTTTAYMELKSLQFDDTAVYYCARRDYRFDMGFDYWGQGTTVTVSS
# Sequence of pembrolizumab analogue (antibody) (VL): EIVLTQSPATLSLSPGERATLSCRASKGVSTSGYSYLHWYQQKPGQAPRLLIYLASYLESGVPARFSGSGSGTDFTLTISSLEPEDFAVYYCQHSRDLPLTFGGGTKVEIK
# Sequence of cyno PD1 (receptor, as listed by the source limits assumed): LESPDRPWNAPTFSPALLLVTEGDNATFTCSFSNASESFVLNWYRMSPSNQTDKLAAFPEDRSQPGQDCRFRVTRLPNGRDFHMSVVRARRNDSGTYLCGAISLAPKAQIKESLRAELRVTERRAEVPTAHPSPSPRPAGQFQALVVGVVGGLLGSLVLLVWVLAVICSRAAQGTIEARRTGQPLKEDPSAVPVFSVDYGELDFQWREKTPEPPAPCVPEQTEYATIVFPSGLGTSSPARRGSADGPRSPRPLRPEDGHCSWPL
substance,measurement,value
pembrolizumab analogue (antibody),"% of all cells in Q2 of panel PD-L1 binding (PD-L1+, CFSE+ cyno PD1 cells)",0.38%
same,"% of all cells in Q3 of panel PD-L1 binding (PD-L1-, CFSE+ cyno PD1 cells)",52.5%
same,"% of cyno PD1-gated cells in Q1 (mAb+, PD-L1-)",44.7%
same,"% of cyno PD1-gated cells in Q2 (mAb+, PD-L1+)",3.84%
same,"% of cyno PD1-gated cells in Q3 (mAb-, PD-L1+)",0.92%
same,"% of cyno PD1-gated cells in Q4 (mAb-, PD-L1-)",50.6%
